Tests used:
[1] = biological target: SARS-CoV-2 Omicron BA.1 Spike (14-1209, S2P) (SARS-CoV-2) (UniProt P0DTC2); assay: cryo-EM structure
[2] = biological target: SARS-CoV-2 Delta Spike (14-1209, S2P) (SARS-CoV-2) (UniProt P0DTC2); assay: cryo-EM structure

Substance	stoichiometry N [1]	stoichiometry N [2]
SARS-CoV-2 Omicron BA.1 Spike (14-1209, S2P) (from UniProt P0DTC2 14-1209) (natural protein)	3	
SARS-CoV-2 Delta Spike (14-1209, S2P) (from UniProt P0DTC2 14-1209) (natural protein)		3

Source: paper PMC9852238
